Data on three molecules can be found in patent US20240148887A1 (MERSANA THERAPEUTICS, published 2024).

For test [1], the target named is T1, NaPi2b-derived peptide from human ([Cyc(12,18)]Ac-QINVTVPSTANCTSPSLCWTDGIQNWTMKN-amide) (human, [Cyc(12,18)] cyclisation between residues 12 and 18; N-terminal acetyl (Ac-); C-terminal amide).
T1 peptide: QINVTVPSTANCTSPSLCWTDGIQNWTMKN
The test is described as follows: ELISA, cyclic peptide coated on plate; mean of 2 experiments. On the technique in general: In an ELISA, binding on a coated surface is turned into a signal by an enzyme label.

Test [2] addresses T2, NaPi2b-derived peptide from cynolmogus monkey ([Cyc(12,18)]Ac-QMNVTVPSMANCTSPSLCWTDGIQIWTMKN-amide) (cynomolgus monkey, [Cyc(12,18)] cyclisation between residues 12 and 18; N-terminal acetyl (Ac-); C-terminal amide).
T2 peptide: T1 peptide with I2M, T9M, N25I
The test is described as above.

Test [3] deals with T3, NaPi2b-derived peptide from rat ([Cyc(12,18)]Ac-EENVTVPSPDNCTSPSYCWTDGIQTWTIQN-amide) (rat, [Cyc(12,18)] cyclisation between residues 12 and 18; N-terminal acetyl (Ac-); C-terminal amide).
T3 peptide: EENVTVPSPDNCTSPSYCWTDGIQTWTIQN
The test is described as above.

Test [4] concerns the target T4, NaPi2b-derived peptide from mouse ([Cyc(12,18)]Ac-EMNVTVPSTDNCTSPSYCWTDGIQTWTIQN-amide) (mouse, [Cyc(12,18)] cyclisation between residues 12 and 18; N-terminal acetyl (Ac-); C-terminal amide).
T4 peptide: T3 peptide with E2M, P9T
Described as above.

In test [5] the target is T5, Biotinylated NaPi2b-derived peptide (QINVTVPSTANCTSPSLCWTDGIQNWTMKN-biotin; Genscript) (C-terminal biotin).
T5 construct: also called NaPi2b-derived peptide antigen; immobilized NaPi2b-derived peptide
T5 peptide: T1 peptide
The test is described as follows: BLI (Octet), biotinylated peptide on streptavidin sensors, 25 C; mean of 4 experiments. How it is done:
Biotinylated NaPi2b-derived peptide ([…]-biotin; Genscript) was immobilized to streptavidin octet sensors in kinetics buffer (10×). Sensors were then blocked in kinetics buffer (10×) with biocytin (50 μg/mL).
Background: In BLI a coated tip is dipped into the sample, and binding shifts an interference pattern.

Test [6] addresses T6, Human NaPi2b-derived peptide (QINVTVPSTANCTSPSLCWTDGIQNWTMKN) (human).
T6 construct: no modification is printed there; also called NaPi2b peptide
T6 peptide: T1 peptide
The test is described as follows: ELISA, peptide coated on plate, anti-human IgG-HRP, four-parameter fit; mean of 2 experiments.
Procedure: (§3) Human NaPi2b-derived peptide ([sequence]) was coated onto the surface of each well of a 96-well plate by incubation with the peptide (1 μg/mL in PBS), overnight at +4° C. The wells were then blocked by incubation with BSA (3% in PBS, containing 0.1% Tween 20 (PBST)) for 1 hour at room temperature. […] The unbound test article was removed by washing with PBST (3×). A secondary anti-human IgG conjugated to HRP (0.16 μg/mL in PBST) was incubated in each well for 1 hour. The unbound secondary antibody was removed by washing with PBST (3×). The HRP substrate, TMB, was added to each well and incubated until a blue color was visible. The reaction was quenched by the addition of sulfuric acid (0.2 N, 100 μL). […] The values were plotted using GraphPad Prism software. EC₅₀ values were determined by four-parameter curve fitting.

Test [7] concerns the target T7, NaPi2b on the cell surface of OVCAR3 human ovarian carcinoma cells (human, UniProt O95436 1-690).
T7 construct: also called sodium-dependent phosphate transport protein 2B; SLC34A2
T7 sequence: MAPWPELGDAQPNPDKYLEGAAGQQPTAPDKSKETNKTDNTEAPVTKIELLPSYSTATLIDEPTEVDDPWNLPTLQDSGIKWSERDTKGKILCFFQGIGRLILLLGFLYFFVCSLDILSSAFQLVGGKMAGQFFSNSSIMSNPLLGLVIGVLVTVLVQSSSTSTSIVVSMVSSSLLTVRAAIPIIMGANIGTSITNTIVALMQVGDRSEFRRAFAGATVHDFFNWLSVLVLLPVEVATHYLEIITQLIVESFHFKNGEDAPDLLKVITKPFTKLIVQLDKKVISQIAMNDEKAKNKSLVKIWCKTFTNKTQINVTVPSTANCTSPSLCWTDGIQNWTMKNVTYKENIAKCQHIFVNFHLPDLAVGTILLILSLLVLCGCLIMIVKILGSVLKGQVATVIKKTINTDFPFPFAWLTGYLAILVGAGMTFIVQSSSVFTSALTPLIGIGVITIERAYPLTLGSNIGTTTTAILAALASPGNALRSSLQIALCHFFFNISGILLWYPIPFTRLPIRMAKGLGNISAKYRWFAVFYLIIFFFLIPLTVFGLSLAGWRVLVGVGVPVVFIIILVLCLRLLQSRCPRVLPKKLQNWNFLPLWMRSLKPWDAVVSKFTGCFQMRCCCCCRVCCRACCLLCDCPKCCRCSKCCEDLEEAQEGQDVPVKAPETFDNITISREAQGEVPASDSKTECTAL
The test is described as follows: flow cytometry on OVCAR3 cells, Alexa Fluor 647 anti-human IgG, median fluorescence, four-parameter fit; mean of 2 experiments. For orientation: Flow cytometry measures light scatter and fluorescence of single cells or particles in a stream.
Procedure: The detached cells were triturated in media, and plated in 96 well U-bottom plates, at a density of 50,000 cells in medium (75 μL). […] The cells were washed with ice cold PBS (3×), and resuspended in ice cold PBS with 1% paraformaldehyde (100 L). The fluorescence per cell was determined by analyzing 5,000 cells for each treatment on the flow cytometer. The median fluorescence value for each treatment was plotted, and EC₅₀ values were calculated with Graphpad Prism software by four-parameter curve fitting.

For test [8], the target named is T8, human FcRn protein (Immunitrack) (human, UniProt P55899 24-297; P61769 21-119, limits assumed).
T8 construct: also called FcRn receptor
The experiment in a line: BLI (Octet QKe), test article on anti-human Fab-CH1 (FAB2G) sensors, FcRn in solution, pH 6.0, 1:1 global fit; mean of 2 experiments. How it is done:
(§1) Dissociation was performed for 15 minutes. Binding constants were calculated with the global fit averages of the traces using a 1:1 model. […] Kinetic parameters were calculated using Octet software (ForteBio).
(§2) After association, sensors were washed for 5 minutes in FcRn binding buffer (Boston Bioproducts; diluted to 100 mM NaH₂PO₄, 0.05% Tween 20, pH 6.0). Association and dissociation steps were performed in FcRn binding buffer. Association measurements to FcRn protein (Immunitrack) was measured at 7 concentrations (from 1 μM to […], 2-fold serial dilutions) for 5 minutes. Dissociation was performed for 15 minutes. Binding constants were calculated with the global fit averages of the traces using a 1:1 model.

The target in test [9] is FcγRIIIA (V176) (human, UniProt P08637 17-208, limits assumed). The test is described as follows: BLI (Octet QKe), test article on anti-human Fab-CH1 (FAB2G) sensors, receptor in solution, 25 C, 1:1 global fit; mean of 2 experiments. As to the method:
as §1

Test [10] has as its target T9, FcγRI (human, UniProt P12314 16-288, limits assumed).
T9 construct: also called Fc receptor FcγRI
The test is described as follows: BLI (Octet QKe), test article on anti-human Fab-CH1 (FAB2G) sensors, receptor in solution, 25 C, 1:1 global fit; mean of 3 experiments. How it is done:
as §1

For test [11], the target named is T10, FcγRIIA (H167) (human, UniProt P12318 36-218, limits assumed).
T10 construct: H167 is printed as the allelic form
T10 sequence (looked up): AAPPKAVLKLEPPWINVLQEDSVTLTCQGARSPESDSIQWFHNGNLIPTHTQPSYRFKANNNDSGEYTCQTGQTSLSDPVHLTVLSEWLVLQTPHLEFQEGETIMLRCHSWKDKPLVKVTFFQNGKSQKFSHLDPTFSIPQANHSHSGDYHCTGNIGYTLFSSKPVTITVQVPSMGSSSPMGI
The test is described as above. As to the method: as §1

The target in test [12] is T6, Human NaPi2b-derived peptide …. The test is described as follows: ELISA, peptide coated on plate, anti-human IgG-HRP, four-parameter fit; mean of 3 experiments.
Procedure: as §3
For test [13], the target named is T8, human FcRn protein (Immunitrack). The experiment in a line: BLI (Octet QKe), test article on anti-human Fab-CH1 (FAB2G) sensors, FcRn in solution, pH 6.0, 1:1 global fit; mean of 5 experiments. How it is done: as §1, §2
Test [14] addresses T9, FcγRI. The experiment in a line: BLI (Octet QKe), test article on anti-human Fab-CH1 (FAB2G) sensors, receptor in solution, 25 C, 1:1 global fit; mean of 2 experiments. As to the method:
as §1

For test [15], the target named is T10, FcγRIIA (H167). The description is as above. As to the method: as §1

Changes are numbered by the printed parent chain.

Chain of FcγRIIIA (V176) (P08637 17-208 F176V limits assumed): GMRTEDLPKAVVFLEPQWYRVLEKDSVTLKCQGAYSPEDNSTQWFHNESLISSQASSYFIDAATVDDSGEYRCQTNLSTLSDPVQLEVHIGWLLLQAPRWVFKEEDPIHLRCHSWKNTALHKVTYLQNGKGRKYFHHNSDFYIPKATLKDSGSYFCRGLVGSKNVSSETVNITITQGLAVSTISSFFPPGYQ
T9 sequence (P12314 16-288 limits assumed): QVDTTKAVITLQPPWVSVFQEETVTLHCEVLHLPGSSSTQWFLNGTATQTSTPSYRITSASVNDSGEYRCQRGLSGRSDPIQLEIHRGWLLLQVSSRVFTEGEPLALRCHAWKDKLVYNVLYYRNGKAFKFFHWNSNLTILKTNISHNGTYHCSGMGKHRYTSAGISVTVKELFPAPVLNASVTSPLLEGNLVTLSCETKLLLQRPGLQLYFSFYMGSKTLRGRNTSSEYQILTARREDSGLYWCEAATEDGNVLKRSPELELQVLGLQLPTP
T8 sequence (P55899 24-297 limits assumed, chain 1 of 2): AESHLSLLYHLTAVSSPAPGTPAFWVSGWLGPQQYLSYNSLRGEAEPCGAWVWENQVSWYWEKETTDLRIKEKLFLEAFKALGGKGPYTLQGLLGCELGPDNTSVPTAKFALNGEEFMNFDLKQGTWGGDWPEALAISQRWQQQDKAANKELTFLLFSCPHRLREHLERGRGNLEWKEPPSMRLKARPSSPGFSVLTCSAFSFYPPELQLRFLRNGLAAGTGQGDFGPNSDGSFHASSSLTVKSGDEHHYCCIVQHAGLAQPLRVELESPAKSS
T8 sequence (P61769 21-119 limits assumed, chain 2 of 2): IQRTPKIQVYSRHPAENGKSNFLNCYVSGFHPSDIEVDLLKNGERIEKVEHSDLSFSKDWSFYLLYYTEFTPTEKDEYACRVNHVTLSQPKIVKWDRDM

B1: XMT-1535 (anti-NaPi2b antibody) (antibody, human IgG1, kappa)
heavy: not shown
light: DIQMTQSPSSLSASVGDRVTITCSASQDIGNFLNWYQQKPGKTVKVLIYYTSSLYSGVPSRFSGSGSGTDYTLTISSLQPEDFATYYCQQYSKLPLTFGQGTKLELKRRTVAAPSVFIFPPSDEQLKSGTASVVCLLNNFYPREAKVQWKVDNALQSGNSQESVTEQDSKDSTYSLSSTLTLSKADYEKHKVYACEVTHQGLSSPVTKSFNRGEC
notes: Unconjugated IgG1 antibody
B1: the EC50 in test [1] worked out at 4.43 nM; in test [2] it was 4.04 nM; in test [3] it was 4.71 nM; in [4], 2.77 nM; in test [6] it was 1.77 nM; in test [7], 11.2 nM. Besides, the Kd in test [5] stood at 0.0729 nM; in test [8], 2.76 nM; in test [9] it was 641 nM; in test [10], 0.15 nM; in test [11], 1740 nM. For the same molecule, the koff in test [5] was found to be 1.27e-05 s⁻¹; in test [8], 0.000448 s⁻¹; in [9] it was 0.146 s⁻¹; in test [10], 0.000192 s⁻¹; in test [11] it was 0.308 s⁻¹. For the same molecule, the kon in test [5] amounted to 170000 M⁻¹ s⁻¹; in [8], 160000 M⁻¹ s⁻¹; in test [9] it was 216000 M⁻¹ s⁻¹; in [10], 1.28e+06 M⁻¹ s⁻¹; in test [11] it was 175000 M⁻¹ s⁻¹.

B2: Conjugate 7 (XMT-1535 drug conjugate of Scaffold 6) (antibody, human IgG1, kappa)
heavy: not shown
light: B1 light
modifications: Scaffold 6 linker-drug (AF-HPA payload) attached by click chemistry to the azido-modified GlcNAc(Fuc)-GalNAc glycan on the asparagine at N297 (N300 of SEQ ID NO: 1 according to claim 40)
notes: The glycan was trimmed with Endo SH and extended with an azido sugar; the text prints 6.6
Take B2: the EC50 was 3.7 nM in [1]; 3.83 nM in test [2]; 2.48 nM in [3]; 1.79 nM in [4]; 1.44 nM in test [12]; 8.15 nM in test [7]. Also, the Kd was 0.0828 nM in test [5], 5.88 nM in [13] and 3.05 nM in test [10]. The koff came out at 1.81e-05 s⁻¹ in test [5], 0.000481 s⁻¹ in test [13] and 0.00373 s⁻¹ in test [10]. The results for the kon in [5], in [13] and in test [10] were 200000 M⁻¹ s⁻¹, 86100 M⁻¹ s⁻¹ and 1.13e+06 M⁻¹ s⁻¹, respectively.

B3: Conjugate 11 (XMT-1535 stochastic conjugate) (antibody, human IgG1, kappa)
heavy: not shown
light: B1 light
modifications: maleimido scaffold of Scaffold 6 (AF-HPA payload) on cysteines freed by TCEP reduction; stochastic, positions not given
notes: DAR 6.5
As to B3, the EC50 in test [1] turned out to be 5 nM; in test [2], 4.19 nM; in [3] it was 3.72 nM; in test [4], 2.26 nM; in test [12], 1.05 nM; in test [7], 6.56 nM. For the same molecule, the Kd worked out at 0.0813 nM in test [5]; 4.96 nM in [13]; 0.166 nM in test [14]; 1250 nM in test [15]; 270 nM in test [9]. Moreover, the koff is 1.37e-05 s⁻¹ in [5]; 0.00055 s⁻¹ in [13]; 0.000209 s⁻¹ in test [14]; 0.345 s⁻¹ in test [15]; 0.0671 s⁻¹ in test [9]. For the same molecule, the kon came to 165000 M⁻¹ s⁻¹ in [5]; 126000 M⁻¹ s⁻¹ in test [13]; 1.26e+06 M⁻¹ s⁻¹ in [14]; 273000 M⁻¹ s⁻¹ in test [15]; 270000 M⁻¹ s⁻¹ in [9].

A word on the EC50: it is the concentration that produces a half-maximal response. As a reminder, the Kd is the equilibrium constant for the complex coming apart. One may read the koff as a measure of how fast the partners let go of each other. For orientation: kon means a measure of how fast the partners come together.
